Experimental data taken from publication PMC6466456.
Like-named read-outs stand apart in the source and are kept apart here.

Columns and labels:
[1] = target: T1, EGFR, human recombinant, hIgG1-Fc tag (Sino Biological) (Homo sapiens, UniProt P00533 25-645); assay: thermofluorimetric analysis
[2] = target: T1, EGFR, human recombinant, hIgG1-Fc tag …; assay: thermofluorimetric analysis; remark: listed apart in the source
[3] = target: T1, EGFR, human recombinant, hIgG1-Fc tag …; assay: thermofluorimetric analysis; remark: listed apart in the source
[4] = target: T1, EGFR, human recombinant, hIgG1-Fc tag …; assay: flow cytometry, EGFR-coated microspheres

B1: NS-DNA (ssDNA)
DNA: CGACATCTTTAACCTAGCCCTTGTCAGTGCTCTATGACAAGGTGTGTAGACGACATCTAACCTAGC
binding result [1]: no binding

B2: LINN2 (ssDNA)
DNA: CCGCTTTATTGTTAATTAAGTTTTATATTTCGCACAACACACAACAATCAATATC
binding result [2]: binds

B3: KM4 (ssDNA)
DNA: CTTACCTCTTTCTCCCACCGCCCCAAACATAATTGGTATACCGCAACACAACGCACAACACACAACAATCAAT
Kd [3]: ~1 nM

B4: KM4-FITC (ssDNA)
DNA: CTTACCTCTTTCTCCCACCGCCCCAAACATAATTGGTATACCGCAACACAACGCACAACACACAACAATCAAT
modifications: 5' AmMC6
Kd [4]: 46 nM
